Test results: the supplement of paper PMC10567573

B1: EHMT1 (parent)
chain: FHKDCASRVNNASYCPHCGEESSK

Variants of: B1
Test: protein stability index of a GFP-peptide fusion (GPS, HEK-293T) (PSI 1-6); higher = more stable
Conditions: c terminus: a fixed tail appended
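Also: lentivirally expressed fusions sorted by FACS into six bins by GFP to DsRed ratio, PSI derived from sequencing read proportions per bin multiplied by bin number.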

| Variant | protein stability index |
| --- | --- |
| A12N | 3.37 |
| K24Q | 3.49 |
| D4E | 3.55 |
| Y14A | 3.31 |
| N11Q | 3.47 |
| H2E | 4.62 |
| E21F | 2.93 |
| A6I | 3.23 |
| D4W | 1.96 |
| E20Q | 3.14 |
| D4K | 2.59 |
| Y14E | 4.05 |
| S7N | 2.83 |
| F1E | 5.17 |
| E21Y | 2.63 |
| E21K | 3.22 |
| C15I | 3.32 |
| R8S | 3.49 |
| A12Y | 2.85 |
| C18K | 3.85 |
| P16N | 3.29 |

| Variant | protein stability index |
| --- | --- |
| N10P | 3.33 |
| C5L | 2.4 |
| R8C | 3.66 |
| Y14N | 3.75 |
| S22C | 3.59 |
| A12S | 3.29 |
| K3D | 3.47 |
| P16S | 3.23 |
| H2T | 3 |
| D4M | 1.83 |
| S23R | 3.21 |
| S13G | 3.97 |
| S23T | 3.72 |
| C18L | 2.76 |
| C5D | 3.19 |
| H2W | 2.62 |
| C18W | 2.31 |
| A12V | 3 |
| S22K | 3.77 |
| A12W | 2.54 |
| A12Q | 3.96 |

| Variant | protein stability index |
| --- | --- |
| C5G | 2.52 |
| S7M | 3.54 |
| H17V | 3.54 |
| C18H | 3.62 |
| K3M | 2.29 |
| S13Y | 2.34 |
| K24A | 2.92 |
| Y14L | 3.82 |
| S23C | 4.21 |
| S22W | 2.54 |
| C18F | 2.93 |
| E20M | 3.15 |
| E21W | 2.8 |
| S22G | 2.81 |
| K24C | 3.7 |
| N11R | 3.47 |
| A6C | 4.35 |
| V9C | 4.31 |
| S7E | 3.54 |
| S22P | 3.03 |
| N10S | 3.24 |

| Variant | protein stability index |
| --- | --- |
| S13L | 2.62 |
| H17K | 3.43 |
| C18R | 3.73 |
| E20Y | 3.46 |
| D4T | 2.47 |
| S22E | 4.01 |
| E20N | 3.37 |
| S22R | 3.05 |
| V9E | 3.87 |
| Y14V | 3.44 |
| C15Q | 3.67 |
| S7Q | 3.23 |
| D4N | 3.3 |
| N10H | 3.94 |
| E21V | 2.32 |
| N10L | 3.31 |
| F1M | 4.9 |
| C15T | 3.59 |
| C18M | 2.96 |
| G19I | 3.87 |
